Measurements taken from patent publication US20140323404A1 (GUANGDONG MEDICAL COLLEGE, published 2014).

B1: NAPTin-9 (peptide)
chain: NPSCGENERHDECSRKECDPKCKYDGTEEKDDEKPVVCLTRVCYGDCICRDGFLRNKNGACVKAEDCELDNMEFI
B2: NAPTin-8 (peptide)
chain: NPSCGENERHDECSRKECDPKCKYDGTEEKDDEKPVVCLTRVCYGDCICRDGFLRNKNGACVKAEDCELDNMEF
B3: NAPTin-5 (peptide)
chain: NPSCGENERHDECSRKECDPKCKYDGTEEKDDEKPVVCLTRVCYGDCICRDGFLRNKNGACVKAEDCEL
B4: NAPTin-4 (peptide)
chain: NPSCGENERHDECSRKECDPKCKYDGTEEKDDEKPVVCLTRVCYGDCICRDGFLRNKNGACVKAEDCELDNME
B5: NAPTin-3 (peptide)
chain: NPSCGENERHDECSRKECDPKCKYDGTEEKDDEKPVVCLTRVCYGDCICRDGFLRNKNGACVKAEDCELDNM
B6: NAPTin-7 (peptide)
chain: NPSCGENERHDECSRKECDPKCKYDGTEEKDDEKPVVCLTRVCYGDCICRDGFLRNKNGACVKAEDC
B7: NAPTin-2 (peptide)
chain: NPSCGENERHDECSRKECDPKCKYDGTEEKDDEKPVVCLTRVCYGDCICRDGFLRNKNGACVKAEDCELDN
B8: NAPTin-6 (peptide)
chain: NPSCGENERHDECSRKECDPKCKYDGTEEKDDEKPVVCLTRVCYGDCICRDGFLRNKNGACVKAEDCE

molecular target: Human coagulation factor XIa (human, UniProt P03951 19-625); experiment: cell-based or functional assay

Binder	inhibition of fXIa activity, chromogenic assay, polypeptide at 100 nM [%]
B1	> 90
B2	> 90
B3	> 90
B4	> 90
B5	> 90
B6	> 90
B7	> 90
B8	> 90
